Experimental data published in publication PMC9905591, “A single point mutation expands the applicability of ostreolysin A6 in biomedicine” (Scientific Reports, 2023).

Molecular target: T1, OlyA6 mutant E69A (Pleurotus ostreatus, UniProt P83467 1-138, E69A)
T1 sequence: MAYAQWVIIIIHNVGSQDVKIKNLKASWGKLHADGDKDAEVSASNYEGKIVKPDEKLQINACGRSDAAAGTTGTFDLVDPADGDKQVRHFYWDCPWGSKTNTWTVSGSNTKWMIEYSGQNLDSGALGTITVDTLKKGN
Test: cell-based or functional assay

B1: Δ48PlyB (pleurotolysin B) (domain or fragment, Pleurotus ostreatus, UniProt Q5W9E8 49-523, looked up)
chain: SQAGDTLNDVIQDPTRRNKLINDNNLLKGIIMGRDGPVPSSRELIVRPDTLRAIINNRATIETTTMEAEFTETLMESNYNSASVKVSAPFITANSEYSESSSFKNTETEKSMYTSSRYLFPQGRIDFTTPDSGFDDVIKLSPQFTSGVQAALAKATGTEKREALQNLFQEYGHVFRTKVHIGGVLSAHTMETFSRSENETEVKQDVKAGLEGAVKGWGGGATAGHGNTQGTITTSQNRKLNVKYIVNGGDYTKIQNTEEWVASTNQSEHWRVIEVTEVTAVADLLPQPIRGQVKDLLKPLLGKWVDVEKVPGLESLPVSVYRPKGAIPAGWFWLGDTADASKALLVKPTLPARSGRNPALTSLHQGSGMTEQPFVDLPQYQYLSTYFGSFAHDTPPGSTLRGLRPDHVLPGRYEMHGDTISTAVYVTRPVDVPFPEDECFDLKSLVRVKLPGSGNPPKPRSALKKSMVLFDSGEK
Q: How did the “hazard ratio against buffer, Kaplan-Meier survival of Colorado potato beetle larvae on E69A/PlyB-treated leaf discs” value turn out when B1 was run?
A: The value was 2.76.
